From patent publication US20220143136A1, “USE OF ANNEXINS IN PREVENTING AND TREATING MUSCLE MEMBRANE INJURY” (NORTHWESTERN UNIVERSITY, priority 2018, published 2022)
“Also recorded” adds a separate entry of the source.

B1: annexin A6: annexin A6 with carboxyl-terminal turboGFP or tdTomato tag, expressed from plasmid electroporated into myofibers (protein, UniProt P14824 2-673, looked up)
Annexin A6: AKIAQGAMYRGSVHDFPEFDANQDAEALYTAMKGFGSDKESILELITSRSNKQRQEICQNYKSLYGKDLIEDLKYELTGKFERLIVNLMRPLAYCDAKEIKDAISGVGTDEKCLIEILASRTNEQMHQLVAAYKDAYERDLESDIIGDTSGHFQKMLVVLLQGTRENDDVVSEDLVQQDVQDLYEAGELKWGTDEAQFIYILGNRSKQHLRLVFDEYLKTTGKPIEASIRGELSGDFEKLMLAVVKCIRSTPEYFAERLFKAMKGLGTRDNTLIRIMVSRSELDMLDIREIFRTKYEKSLYSMIKNDTSGEYKKALLKLCGGDDDAAGQFFPEAAQVAYQMWELSAVSRVELKGTVCAANDFNPDADAKALRKAMKGIGTDEATIIDIVTHRSNAQRQQIRQTFKSHFGRDLMADLKSEISGDLARLILGLMMPPAHYDAKQLKKAMEGAGTDEKTLIEILATRTNAEIRAINEAYKEDYHKSLEDALSSDTSGHFRRILISLATGNREEGGENRDQAQEDAQVAAEILEIADTPSGDKTSLETRFMTVLCTRSYPHLRRVFQEFIKKTNYDIEHVIKKEMSGDVKDAFVAIVQSVKNKPLFFADKLYKSMKGAGTDEKTLTRVMVSRSEIDLLNIRREFIEKYDKSLHQAIEGDTSGDFMKALLALCGGED
modifications: C-terminal turboGFP or tdTomato tag
notes: annexin A6 with carboxyl-terminal turboGFP or tdTomato tag, expressed from plasmid electroporated into myofibers
B2: recombinant annexin A6: recombinant human annexin A6 protein with C-terminal HIS tag (5186-A6-050, R&D systems); mouse protein from Northwestern core in one cohort (protein, UniProt P08133 2-673, looked up)
Annexin A6: AKPAQGAKYRGSIHDFPGFDPNQDAEALYTAMKGFGSDKEAILDIITSRSNRQRQEVCQSYKSLYGKDLIADLKYELTGKFERLIVGLMRPPAYCDAKEIKDAISGIGTDEKCLIEILASRTNEQMHQLVAAYKDAYERDLEADIIGDTSGHFQKMLVVLLQGTREEDDVVSEDLVQQDVQDLYEAGELKWGTDEAQFIYILGNRSKQHLRLVFDEYLKTTGKPIEASIRGELSGDFEKLMLAVVKCIRSTPEYFAERLFKAMKGLGTRDNTLIRIMVSRSELDMLDIREIFRTKYEKSLYSMIKNDTSGEYKKTLLKLSGGDDDAAGQFFPEAAQVAYQMWELSAVARVELKGTVRPANDFNPDADAKALRKAMKGLGTDEDTIIDIITHRSNVQRQQIRQTFKSHFGRDLMTDLKSEISGDLARLILGLMMPPAHYDAKQLKKAMEGAGTDEKALIEILATRTNAEIRAINEAYKEDYHKSLEDALSSDTSGHFRRILISLATGHREEGGENLDQAREDAQVAAEILEIADTPSGDKTSLETRFMTILCTRSYPHLRRVFQEFIKMTNYDVEHTIKKEMSGDVRDAFVAIVQSVKNKPLFFADKLYKSMKGAGTDEKTLTRIMVSRSEIDLLNIRREFIEKYDKSLHQAIEGDTSGDFLKALLALCGGED
modifications: C-terminal His tag
notes: recombinant human annexin A6 protein with C-terminal HIS tag (5186-A6-050, R&D systems); mouse protein from Northwestern core in one cohort

Experiments:
Format in all cases: cell-based, mouse
[1] = tested on: Isolated FDB fibers; assay: Single cell Ca2+ and shortening measurements; settings: annexin A6 overexpression vs control fibers
Experimental: Single cell Ca^2+ and shortening measurements. Isolated FDB fibers were plated on laminin coated glass-bottomed 35 mm dishes for one hour and then cultured overnight in DMEM with 10% FBS and 1% penicillin/streptomycin at 37° C. in a 10% CO2 incubator. One hour prior to data acquisition, the medium was removed and cells were incubated in Tyrode buffer (119 mM NaCl, 5 mM KCl, 25 mM HEPES, 2 mM CaCl2, 2 mM MgCl2) with 10 μM Indo-1 AM (TefLabs) for 1 hour at 37° C. in a 10% CO2 incubator. Dishes were then filled with Tyrode buffer, mounted on a custom stage and platinum pacing electrodes were inserted into the dish. Stimulation was elicited using a 701C high-powered stimulator controlled by the 950A software (Aurora Scientific). Stimulation was performed at 40 and 80 Hz, 5 ms pulse width, 100 ms duration. Ratiometric Ca^2+ signals were collected with two photomultiplier tubes and a FluoroDaq controller. Video sarcomere length was recorded with a high-speed camera and fast Fourier transform using the Aurora Scientific 900B-VSL system (Aurora, Ontario). Ten transients were collected over 20 seconds and averaged together per cell per frequency.

[2] = tested on: wildtype myofibers; assay: Laser-induced membrane injury, FM 4-64 dye uptake; settings: for FM 4-64 fluorescence area / dye uptake after laser injury: extracellular recombinant protein vs vehicle control
[3] = tested on: myofibers; assay: Bleb formation and intracellular Ca2+ fluorescence (GCaMP5G, Fluo-4) after laser injury with annexin overexpression; settings: for internal GCaMP5G Ca2+ fluorescence at the site of injury: vs GCaMP5G alone
Experimental: (§1) Electroporation, myofiber isolation, laser injury, cap and vesicle measurement. Flexor digitorum brevis (FDB) fibers were transfected with endo-free plasmid DNA by in vivo electroporation. Methods were described previously in (Demonbreun and McNally, 2015; Demonbreun et al., 2016b; DiFranco et al., 2009). Z-stack projections were acquired from consecutive acquisitions after the final time-lapse frame, approximately 4 minutes post damage, with a […] step size between slices. Z-stack renderings were constructed in FIJI. Measurement of the cap area and feret diameter were conducted from a single slice near the middle of the z-stack using FIJI imaging tools. Fibers expressing similar levels of tagged or GCaMP5G protein were compared. GCaMP5G Ca^2+ fluorescence was measured from the acquired timelapse images, using a standard rectangular ROI, placed inside the myofiber below the site of damage using FIJI. Fluorescence was expressed as F/F0. External vesicle number and GCaMP5G area were measured from endpoint z-stacks and max projection images using FIJI. Vesicles were considered external if they were found outside the sarcolemma assessed in brightfield and fluorescent channels. All measurements were acquired from myofibers isolated from at least n≥3 mice, n≥3 myofibers per mouse.
as §1, with “(Demonbreun A R, Quattrocelli M, Barefield D Y, Allen M V, Swanson K E,” for “(Demonbreun”, “McNally E M. An actin-dependent annexin complex mediates plasma membrane repair in muscle. The Journal of cell biology. 2016; 213(6):705-18; Demonbreun A R, and McNally E M. DNA Electroporation, Isolation and Imaging of Myofibers. Journal of visualized experiments: JoVE.” for “McNally,”, “106(106):e53551;” for “Demonbreun et al., 2016b;”, “M, Quinonez M, Capote J, and Vergara J. DNA transfection of mammalian skeletal muscles using in vivo electroporation. Journal of visualized experiments: JoVE. 2009; 32(32)).” for “et al., 2009).”
Calcium and pH indicator dye measurements. Wildtype FDBs were isolated and plated in Ringers on Matek glass-bottom dishes as described above. Twenty minutes prior to imaging, myofibers were loaded with Fluo-4 AM at 37° C. (F10489, ThermoFisher Scientific, Waltham, Mass.) or pHrodo AM (P35373, ThermoFisher Scientific, Waltham, Mass.) as described in the instruction manual. Fibers were rinsed once with Ringers then subsequently damaged and imaged on the Nikon A1R GaSP, as described above. Fluorescence intensity was measured using FIJI (NIH). phRodo change in fluorescence intensity was calculated as F/F0. Data was acquired from n=3 mice per experiment from multiple myofibers per mouse. […]

[4] = tested on: dysferlin-null (Dysf129) myofibers; assay: Laser-induced membrane injury, FM 4-64 dye uptake, dysferlin-null myofibers; settings: LGMD2B model
Experimental: Myofiber isolation. Flexor digitorum brevis (FDB) fibers were isolated with methods that were described previously in (Demonbreun and McNally, 2015; Demonbreun et al., 2016b; DiFranco et al., 2009). Briefly, fibers were dissociated in 0.2% BSA plus collagenase type II (Cat #17101, Thermo Fisher Scientific, Waltham, Mass.) for 60 minutes at 37 degrees in 10% CO2. Fibers were then moved to Ringers solution and placed on MatTek confocal microscopy dishes (Cat #P35G-1.5-14-C, MatTek, Ashland Mass.).
Multiphoton laser injury and imaging. Isolated fibers were subjected to laser-induced damage at room temperature using the Nikon A1R-MP multiphoton microscope. Imaging was performed using a 25×1.1 NA objective directed by the NIS-Elements AR imaging software. Green fluorescence protein (GFP) and FM 4-64 were excited using a 920 nm wavelength laser and emission wavelengths of 575 nm and 629 nm were collected respectively. […] Fluorescence intensity and cap area were measured using Fiji (NIH).
For recombinant protein studies, myofibers were isolated from mice as described above. […] Cap size was assessed from acquired images in FIJI. […] Images were acquired and quantitated as described above. FM 4-64 fluorescence at endpoint was measured using FIJI.

Molecule	Ca2+ cycling (Indo-1) ([1]; 40 or 80 Hz stimulation)	unloaded cell shortening [1]	FM 4-64 dye uptake after laser-induced injury ([2]; plasmid overexpression of annexin A6-GFP vs mock electroporated control)	internal Fluo-4 Ca2+ fluorescence at the site of membrane injury ([3]; annexin A6 overexpression vs control myofibers)	size of GCaMP5G-containing blebs ([3]; annexin overexpression vs annexin A1, A2 or GCaMP5G alone)	number of extracellular (GCaMP5G-positive) blebs at the membrane lesion ([3]; annexin overexpression vs annexin A1 overexpression or GCaMP5G alone)	internal GCaMP5G Ca2+ fluorescence at the site of injury ([3]; first 20 seconds post injury)	internal GCaMP5G Ca2+ fluorescence at the site of injury ([3]; over 240 seconds of imaging)	internal GCaMP5G Ca2+ fluorescence at the site of injury ([3]; over 240 seconds of imaging, listed as A6)	FM 4-64 dye uptake after laser injury ([4]; plasmid overexpression of annexin A6 vs control)	FM 4-64 fluorescence area / dye uptake after laser injury [2]	FM 4-64 fluorescence area / dye uptake after laser injury ([2]; listed as rANXA6)	FM 4-64 fluorescence area after laser injury ([4]; extracellular recombinant protein vs vehicle control)
B1	no differences	unaffected	decreased; also recorded: reduced	Reduction; also recorded: significantly decreased	significantly larger	significantly more blebs	significant reduction	most significant reduction	significant reduction	significant reduction; also recorded: reduced			
B2											reduced	significantly smaller; also recorded: significantly less	reduced; also recorded: decreased
